Measured values published in publication PMC3206438, “Identification and characterization of PhbF: A DNA binding protein with regulatory role in the PHB metabolism of Herbaspirillum seropedicae SmR1” (BMC Microbiology, 2011).

B1: His-PhbF (H. seropedicae SmR1 PhbF protein fused to an N-terminal six-histidine tag) (natural protein, Herbaspirillum seropedicae SmR1, UniProt D8J0C9 1-188, looked up)
chain: MTTAKNSADRLIKKYPNRRLYDTQTSSYITLTDVKQLVLDNEEFTVVDAKSGDDLTRSILLQIILEEESHGVPMFSSGALSQIIRYYGHAMQGMMGNYLEKNIQTFIDIQNKLAENSKGFYEGKPFSPEMWTQFMNVQGPMMQGMMSNYIEQSKNLFIQMQEQMQSQTKNMFGTFPFGNPGAGPDQKK
notes: the phbF gene was amplified from the genome and cloned into pET-28a (pKADO3); The pET-28a vector residues between the His tag and the protein are not described; also called His-tag PhbF protein; source: E. coli BL21(DE3) carrying pKADO3, purified (Hi-Trap Chelating Ni2+ column); not shown: His6, N-terminal, kept

Tests used:
[1] = test system: His-PhbF (Herbaspirillum seropedicae SmR1); experiment: EMSA; details: apparent; 100 ng calf thymus DNA; tetramer concentration; EMSA: 10 mM Tris-HCl pH 7.5, 80 mM NaCl, 1 mM EDTA, 10 mM beta-mercaptoethanol, 5% glycerol, 20 nM DNA, 100 ng calf thymus DNA in 10 uL, 30 C 5 min; footprint: …
[2] = target: the molecule itself; experiment: SEC; gel filtration chromatography of purified His-PhbF; apparent molecular weight 104.3 kDa; conditions not told in the main text (Additional file 1, Figure S2)

Molecule | Kd [1] [nM] | stoichiometry N [2]
phaP1 promoter | 150 | –
phbF promoter (EMSA) | 450 | –
B1 | – | 4
